These results are taken from patent US20240409645A1.

The target of the experiment is T1, mouse IL-2Rβ (mouse) (UniProt P16297).
T1 sequence (looked up): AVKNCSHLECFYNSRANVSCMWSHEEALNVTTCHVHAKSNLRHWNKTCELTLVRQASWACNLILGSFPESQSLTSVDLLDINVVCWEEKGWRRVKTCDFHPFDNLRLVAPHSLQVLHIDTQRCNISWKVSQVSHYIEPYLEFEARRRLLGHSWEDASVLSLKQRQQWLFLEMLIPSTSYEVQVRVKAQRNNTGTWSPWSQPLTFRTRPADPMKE
As to the kind of experiment: P.E. ELISA, coated protein. (In general: An ELISA detects its analyte on a solid surface through an enzyme-linked reagent.)

B1: FJ1427_P035MP02B10 (VHH)
VHH: QVQLVESGGGLVEAGGSLRLSCAASGRAFNNFPMGWFRQAPGKEREFVAAITWISGSTLYADSVKGRFTISRDKSKNTVYLQMSGLKPEDTALYYCAAALKTITRGQHDYTYWGQGTQVTVSS
Turning to B1, the P.E. binding ELISA OD worked out at 0.047 OD450 nm.

B2: FJ1427 P035MP02E06 (VHH)
VHH: QVQLVESGGGSVQPGGSLRLSCAASGFTFSNYAMSWVRQAPGKGLEWVASITGFGRGTDYADSVKGRFTISRDNAEDTLYLQMNSLKPEDTAVYYCAKYSSSTYYPPTPARGRDYRGQGTQVTVSS
For the molecule B2, the P.E. binding ELISA OD is 0.048 OD450 nm.

B3: FJ1427 P035MP02G08 (VHH)
VHH: QVQLVESGGGLVQAGGSLRLSCTVSGDVFVRYTMAWFRQAPGKEREFVASVTDSGRTTEYVHSVRGRFTVSRDNAKNTVYLQMNNLKPEDTAVYYCAANTDYFRIRSLDANTWGQGTQVTVSS
As to B3, the P.E. binding ELISA OD was found to be 0.055 OD450 nm.

B4: FJ1427 P035MP02D09 (VHH)
VHH: QVQLVESGGGLVQAGGSLRLACALSGDVFVRYTMAWFRQAPGKEREFVASVTDSGRTTDYVASVQGRFTVSRDNNKNTVYLQMNSLKPEDTAVYYCAANTDYFQIRSLDRNTWGQGTQVTVSS
The molecule B4 returned a P.E. binding ELISA OD of 0.056 OD450 nm.

B5: FJ1427_P035MP02F10 (VHH)
VHH: EVQLVESGGGLVQAGGSLRLSCVVSGDVFVRYTMAWFRQAPGKEREFVAVVTDSGRTTEYVDSVKGRFTVSRDNAKNTVYLQMNNLKPEDTAVYYCAANTDYFQIRSVDNNAWGQGTQVTVSS
For the molecule B5, the P.E. binding ELISA OD turned out to be 0.051 OD450 nm.

B6: FJ1427_P035MP02F09 (VHH)
VHH: EVQLVESGGGLVQAGGSLRLSCAASGDVFVRYTMAWFRQAPGKEREFVASVTDSGRTTDYVDSVKGRFTVSRDNAKNTVYLQMNNLKPEDTAVYYCAANTDYFQIRSLEFNTWGQGTQVTVSS
In turn, B6 gave a P.E. binding ELISA OD of 0.051 OD450 nm.

B7: FJ1427 P035MP02H10 (VHH)
VHH: EVQLVESGGGLVQAGGSLRLSCAASGDVFVRYTMAWFRQAPGKEREFVASVTDSGRTTDYVDSVKGRFTVSRDNAKNTVYLQMNNLKPEDTAVYYCAANTDYFQIKSLDRNTWGQGTQVTVSS
As to B7, the P.E. binding ELISA OD was 0.051 OD450 nm.

B8: FJ1427_P035MP02C10 (VHH)
VHH: QVQLVESGGGLVQAGGSLRLACALSGDVFVRYTMAWFRQAPGKEREFVASVTDSGRTTDYVASVQGRFTVSRDNNKNTVYLQMNSLKPEDTAVYYCAANTDYFQIRSLDRNTWGQGTQVTVSS
Molecule B8 had a P.E. binding ELISA OD of 0.05 OD450 nm.

B9: FJ1427_P035MP02G09 (VHH)
VHH: QVQLVESGGGLVQAGGSLRLSCTVSGDVFVRYTMAWFRQAPGKEREFVALVTDSGRTTEYVDSVKGRFTVSRDNAKNTVYLQMNNLKPEDTAVYYCAANTDYFRIRSLDANTWGQGTQVTVSS
Molecule B9 displayed a P.E. binding ELISA OD of 0.066 OD450 nm.

B10: FJ1427 P035MP02A10 (VHH)
VHH: QLQLVESGGGLVQTGTSLRLSCAASGHTSRINAMGWFRQFPGKEREFVAAISRNGGSTVYVDSVKGRFTISRDNAKSTVYLQMNSLKPEDTAVYYCTATDAVGWTTRWMTADFGFWGQGTQVTVSS
For B10, the P.E. binding ELISA OD was found to be 0.047 OD450 nm.

B11: FJ1427_P035MP02B09 (VHH)
VHH: EVQLVESGGGLVQAGGSLRLSCAASGRTFSTTEMGWFRQAPGKEREFVAAITWTGRGTMYAESVEGRFTISRENAKNMVYLQMNSLKPEDTAIYYCAAARRGRAAVRSEGGYDFWGQGTQVTVSS
Turning to B11, the P.E. binding ELISA OD was 0.047 OD450 nm.

B12: FJ1427_P035MP02A11 (VHH)
VHH: EVQLVESGGGLVQAGGSLRLSCAASGRTFSTTEMGWFRQAPGKEREFVAAITWTGRGTMYAESVEGRFTISRENAKNMVYLQMNSLKPEDTAIYYCAAARRGRAAVRSEGGYDFWGQGTQATVSS
B12 came in with a P.E. binding ELISA OD of 0.047 OD450 nm.

B13: FJ1427_P035MP02G10 (VHH)
VHH: QVQLVESGGGLVQAGGSLRLSCAASGRTFSTTEMGWFRQAPGKEREFVAAITWTGRGTMYAESVEGRFTISRENAKNMVYLQMNSLKPEDTAIYYCAAARRGRAAVRSEGGYDFWGQGTQVTVSS
B13 came in with a P.E. binding ELISA OD of 0.048 OD450 nm.

B14: FJ1427_P035MP02H08 (VHH)
VHH: EVQLVESGGGLVQAGDSLRISCAASGRIFSNYAMGWFRQAPGKETEFVAGITHLTSTTHYADSVKGRFTISRDNAKNTMHLQMNNLKPEDTALYYCAADRNIKITADWSYWGQGTQVTVAS
With B14, the P.E. binding ELISA OD stood at 0.049 OD450 nm.

B15: FJ1427 P035MP02D11 (VHH)
VHH: QVQLQESGGGLVQAGDSLRISCAASGRIFSNYAMGWFRQAPGKETEFVAGITHLTSTTHYADSVKGRFTISRDNAKNTMHLQMNNLKPEDTALYYCAADRNIKITADWSYWGQGTQVTVAS
For B15, the P.E. binding ELISA OD amounted to 0.047 OD450 nm.

B16: FJ1427 P035MP02C03 (VHH)
VHH: EVQLVESGGGLVQTGGSLRLSCAASGSQFINDVMGWYRQVPGKQRELVADMDDTGSTEYADSVKGRFTILRDSVKNTAYLQMSNLKPEDTGVYYCKAGLWIKGRHFDYWGQGTQVTVSS
In turn, B16 had a P.E. binding ELISA OD of 0.047 OD450 nm.

B17: FJ1427 P035MP02E11 (VHH)
VHH: QVQLQESGGGLVQAGGSLRLSCAASGRTFSNYVMAWFRQAPGKEREFVGAITQTGRGTFYADSVEGRFTISRINDKNTVYLQMNSLKPEDTAVYYCSAPRSGRAGTRNQMDYEYWGQGTQVTVSS
B17 yielded a P.E. binding ELISA OD of 0.048 OD450 nm.

B18: FJ1427_P035MP02F08 (VHH)
VHH: QVQLVESGGGLVQAGGSLRLSCAASGSIFSLNTMGWFRQAPGKEREFVAAISRSGGSATYGDSVKGRFTISTNNAKTTVYLQMNSLKPDDTAVYSCAASAAVGWTTRWSTIDFDSWGQGTQVTVSS
Take B18: the P.E. binding ELISA OD turned out to be 0.048 OD450 nm.

B19: FJ1427 P035MP02D10 (VHH)
VHH: EVQLVESGGGLVQAGGSLRLSCAASGRTFSSDAKAWFRQAPGKEREFVAAITWAGRGTDYADSVKDRFTITRDNAKNMVYLQMSSLKPEDTAVYYCALNPTGVIGPGFRNSNRYDYWGQGTQVTVAS
Molecule B19 gave a P.E. binding ELISA OD of 0.047 OD450 nm.

B20: FJ1427 P035MP02H09 (VHH)
VHH: QLQLVESGGGLVQPGGSLRLSCAAAGRAIENYPVGWFRRAPGKEREFVAAITWISGSTLYADSVKGRFTISRDNAKNTVYLQMSSLKPEDTALYYCAAALKTITRGQNDYSYWGQGTQVTVSS
On to B20, for which the P.E. binding ELISA OD is 0.049 OD450 nm.

B21: FJ1427_P035MP02B08 (VHH)
VHH: EVQLVESGGGLVQAGGSLRLSCAASGRAIENYPVGWFRQAPGKEREFVAAITWISGSTLYADSVKGRFTISRDNAKNTVYLQMSSLKPEDTALYYCAAALKTITRGQNDYSYWGQGTQVTVSS
Molecule B21 had a P.E. binding ELISA OD of 0.048 OD450 nm.

B22: FJ1427_P035MP02E10 (VHH)
VHH: QVQLVESGGGLVQAGGSLRLSCAAAGRAIENYPVGWFRRAPGKEREFVAAITWISGSTLYADSVKGRFTISRDNAKNTVYLQMSSLKPEDTALYYCAAALKTITRGQNDYSYWGQGTQVTVSS
The molecule B22 returned a P.E. binding ELISA OD of 0.047 OD450 nm.

B23: FJ1427_P035MP02C09 (VHH)
VHH: QVQLQESGGGLVQAGGSLRLSCVASGSVSSINGMAWYRQGADNQRVLVAAISRVGNTAYGDSVKGRFTISRQNARNTVYLQMNSLKPEDTAVYYCNADSWGGDDYWGQGTQVTVSS
For the molecule B23, the P.E. binding ELISA OD was 0.047 OD450 nm.
